Data published in the domain aggregation screens of Martell et al. (2025).

Assay: soluble fraction after stress (log2 fold change); higher = more stays soluble; pooled small domains, quantitative proteomics
Conditions: stress: 50 degC
In short: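 Quantitative proteomics served as the high-throughput read-out for pooled custom libraries of small protein domains. Each was stressed at 50°C. Aggregation propensity is expressed as the base-two log fold change in soluble protein after stress. A higher value means a larger share of the protein remains in solution.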

Sequence | soluble fraction (log2)
HMGAGLKIGNDHEYANYLEYKVSVEKYAPGAILGEIKQKGIQFNTTISKTTFYRYITDGVFLTITNADLPV | 0.223
HMGALTGQERRAEIMNILRQSTMPLSGAALGKQLGVSRQVVVQDIALLRQSGEEIYATNRGYVTG | -0.129
HMGAQPLIEPLSERELEVLALIAEGLTNAEIGRRLFIATGTVKRHVNTIYGKLDVHGRIEAIARARDLHLI | -0.276
HMGAQRDFELQLIDVIRQNPGLTYKAYGEKLSVSQATVKRLVAKLKETGSIRREGSQRKGTWIITDD | -0.867
HMGARWPIQDRPLTATEAAAVRRMYAGGLPHGRSKNSVITEVWGDLSNKPKRLDWLNQALEGGA | 0.184
HMGASGVEVPDVAGMSTAQAVSSLEQKGFVVNRTESYDAGVEKGNVISQSPEGGTKAPNGSAVTIRISQGA | 0.428
HMGASIQITVNNTPVMLKNKTHYTLVDVLDFYPFDLSKMGGTELYTAINGVKSGFTDPVHANDSIEIYWI | -0.148
HMGASSLVGRSARVLQAVTDSDGRIKLAGETWSARLAAGATSTVGPGEEVRVIAIHGATAIVAPV | 0.0322
HMGASVGEVESVKTASEIYTAAAGKIVAVNDAVAKDPSLVNSDPYGNGWLVKLEIADLSAINA | 0.000115
HMGAVDIATARQLISEIGLPIMLKAEGGGGGRGIFAIHNEAELEDAFFKASTMAQASFGNPRLFVEKF | -0.228
HMGAVFEFIMEEEEPERIDKLLSSALPDLSRSYLQKLVKEGAVLVNKKEVKPNHKVNPGDVVEISVPEPE | 0.18
HMGAVGISQKVTSLETAVLGKNFAKDPLIDRVARLEQTVLPKQAEANASLSLPERVSKLLEKVPIAAG | 0.223
HMGAVPKNYFPAVEKGLQDSVQKGLLAGYPVVGVKAILYDGSYHPVDSSEMAFKTATIQAFKKGFMEA | 0.2
HMGAYIPSYAPVDINAATHTVVRGDTVYNISKRYHVSQEDFRAWNGMADNTLSIGQVVKVKPAGYTAPK | -0.087
HMGDAVSRAYFALADDLLKGELTETVSEVLIRTRYELTSAQLQAVLHRIAQEGWAHKKPGYGWEFSAMLT | -1.83
HMGDEHYDTISAFIKSVRGSDPDAALYWLAKMILAGEDPRFILRRLIVLSGEDIGLADPQGI | -0.653
HMGDEPGAGYKWREDVLLRVMSEHGIDESARDDFVRHAVKFDDDDNLYLKKAEIIAAAEAWESSS | 0.17
HMGDFLLQVDFPPALLEMLPEGKRQAAIGVLSHDPRPAYQRTPGRVYGLNFAGHNIRFAVSENLLTVLEV | -2.08
HMGDFLLTPHRGRSADFVIGNPPYIRLEDVPNDISDAYRAEYASMPGRADIHVGFYEKGLDL | -0.142
HMGDFVIVPDLIGKTIEEFDSELNELNLKYIISDSGNYNPDFKINSVLDQLPNANSKVKGGRKIYITLNAS | -1.37
HMGDGAWQQGEGGRWWYKYNNGTYPKDRVVTIGGKKYGFDSEGWMLSDTTKAFGGTTYSFAADGVATAQA | -0.0259
HMGDGYTYYYDDTVLALGFTKIGNDYYIFNTFSGKMYKDATMWVNDNPYGIKGGMHYFDASGKMFV | 0.128
HMGDIFTAEDAKERIDYSGVDGIMLARGIFGNPWLIRDIREYLEYGKILHPVTQLDRVNMAIEHTRKT | 0.0388
HMGDIMLLFKENGKVYFLVGNQYTYVKNPTELSAIKTMMKQAGYDTHEHTNTTQVAYIKRLATE | -2.11
HMGDKVLIQTAQRLKKDLPFASIVSRFGGDEFLIFLPGISSTERVETIVKKTVFLFIAISTTLF | -0.124

Sequence | soluble fraction (log2)
HMGDLKSLIQATMDDAGISIKPDAMDYLISHLGSDRLTTRAELDKLILYAGADDKLDLDSVVELVG | -0.0746
HMGDLLTVDRVAATSGLGVDTIRYYQRLGLLDPPVRHGRRALYSTAHLDRLVEIRQLADEGFSLAQIATL | -1.08
HMGDLVFDFVHGVHKAAEVEKELVMQALRFTHGNVSRAARLIGMQRSSLRYRIERYRLDAFVMEVAN | 0.3
HMGDPSSERNIQKSIFILIGEKALSVQDISRSLGMPNDIIDKALISGVERNLWLSSDKGEYYL | -1.1
HMGDRRSVFEQSVLDAIKSLVKQGELATTKAISDHIGTNYQGNVSRAITALLADNKIKKLPKEGVLQPYEA | 0.0535
HMGDSFLDHKKELQSMILSRLDLSREVPDEEIKDIIDELIIAQSKKLFLSLNDRGKLRQELFYSIRK | -0.566
HMGDSVLNDKLNTLAGLDEERFKWVLASLNPNNSYSTHSDKMSALMWLVSYFNDEADLKETVPPLPI | -0.0724
HMGDTIFINNNFYVKHIVEFGETIDIISKIYDVSVNKILETNETSTKLYSGQSLFIPININV | -3.4
HMGDTLEIVVIYSNKQKAEEAVNNLKGKFEDLGYNFAIITVDTSKITQLAMESSIQYIEFPKSFYFSD | -1.64
HMGDVATVKLDNNGLLNMRKSDARGADIVARIPNGTVVQVLNRETEWTQVRYDGKEGYVMSSFLQFAE | 0.199
HMGDVPESLVEKAGHSINAKIISAWGMTETGASTMTRPQDDPERAIYSDGVVLPLMDVRVVNDAGLA | 0.0119
HMGDWEKALAQFAAHRLANGSTAFLDEMYPIFERILLQAALNKTGGRKIEAAELLGWGRNTLTRKLKELGF | -2.2
HMGDYERVPEYKGKLTSDLTMEDSQKFAFRFIWQNSDEDEGKIIDQDPPAGKSVAKGSEIVLYVSNG | 0.35
HMGEAAIYRINILINNLNVRSGPGTLYPRLRRADFPGEYDIFEEKNGFGRISNTKSEWVSLNTQYVQRLT | -0.549
HMGEAIPVPDLKHKALTDAEHLVHELGLEIQVVDTGYVKSLPADYILGQSLAPGEKVKSGHIIYVTINSP | -0.0167
HMGEGTAVGKALKFLAAQGKKFAPELLDMAGSLTGVEALSKLGDAIKGDPELSELDKRILLAELETDAV | -0.0713
HMGEIHALIPGLVSRLFVKPGDRVENGQGLLILEAMKMENEIDSPISGVVGKIYIKAGDKVEKGELIMEIN | -0.46
HMGEIVVPDLIGKSLTEATRILSDSTLTVGKVNYQISSTLLPNTVLDQYPAPGNKLNSGNTVDLFITKE | -0.0436
HMGEKTLSEKVYDRLKELIMDGELERGTKITETSIAKMFDVSPTPVREAFRKLASDGLIEVASWKGVIVKG | -0.0886
HMGELYGTDQYKDGDAQDTNIGKLLEVNIDGKWQVATTGTSRFEFAGVMDDNGHKLIMISVLPEAKTV | -0.18
HMGEPLSPDARALTNVLRHYRGWAEPGELARKSGLGSRERVLTAAQSLVNAGLADIERGMVRPTAALMEVQ | 0.0805
HMGEPVASSREVAKRFGKEHKHVLAAIRQILVAENSATKFFHETAFEYRGQRFPEYLMNRDGFALLAMGF | -3.1
HMGEPVNSPMPGTILRVEVTQGAAVKEGQLLVVLEAMKMENEILAPKDGTVAQVVVQKGSHVETGSPLIVL | -0.217
HMGEQLALLERARTLLEDETLETEVQKELEMLLEDIEAARAEANATQLEDLFEELADLLFDLE | -0.0786
HMGEQYYVLIDNKQNGPHNINAIQKMIDQNIVNRQTLIWKKGMTDWGNIMDDKDLKEMVNKIP | -0.0562

Sequence | soluble fraction (log2)
HMGERMELTLDNPREAIPVLDAMGFANYQVVDKEHIHIFERLNESALVNMELAKAGIPVKGISITSE | 0.018
HMGESEWIVKWRGEKRDEERLQESELVRDDPEHRISVVRPRDDVDASAWLNRWRKSRYVQYIQPNHRVTIS | 0.0613
HMGESFPYVAYATDSVRLRARPSSSATILTVIRKGDAVLITGADGSYKIVEYEGRKGYVVSAFLSSQET | -0.857
HMGESVQVPSYVGMGFREAARKARARDFGVAVSDSIYVPGKPPGEIIAQDPKAESRVKEGRTIYFTVAK | 0.0425
HMGETAFRYALPLDQGEALKRSHVIRQSISPDDALATRVTVLEDVLDQTLRQPVQAGEVLLEDHFTR | -0.00712
HMGETRWTYDDFGNILTEKAAPYSATEFLGKTYTYDTDNRYLKTVTDALGRTTTTLSYDKYGNPLSVMD | 0.101
HMGETWYEILEISSDATTEEIRQAYFEQARQYHPDTNPGELAREWFYQVQEAYETLSDPDRRRQYDESIKG | -0.402
HMGEVEVPDLVGIEAIQAKTLLFNSDFLIKEFYDYDPTQPIGVVIRQAPEAGTTQTIGDSVTITINRA | -0.116
HMGEVISRSYPLLKTKAKPAEVSEALQKLIKAPATVTFDEKNEVFHINATRLQHTWAEGYFKGLHGK | 0.0333
HMGEVPPGWSVEALAAIERDLAHHVGPVARVLVQRGARLHTTTDDLRSALANAITDDLARRRFMQP | -0.416
HMGFEALRSRHRITAREMEVLQHMLAGRSNAEIGHTLGLSERTVKTHITSIFNKLGVDSRAQLGYMLK | -0.498
HMGFLTKTQRLEILLHLKDEPYYNVEKLKELIKNRYGIVYQSSQSYYDLLKEAGLSWHQTQA | -0.64
HMGFVTVTEVDTTADLKLARVYVSVLGPEEQWAKSFTALESARGFVWNWLRKHLDLRVTPQLAF | -0.984
HMGGASVTDQQIRDFVSAHTDDPMAIYKAAVANGISSARLAQVTGISIADIEAFVRKNNLPSF | 0.0932
HMGGEEINMINLVGLSQSEAENQLAKLKLKIGQVTAEYSDKPSGTVLKQSISANNKVKKGADIDIVVSKG | 0.126
HMGGELLSLRRIGTLTGISYPTLLRYVARYGEQIPQTGTGRSRRFPPAAVPVFQELRATRGRAPRATA | -0.063
HMGGEPKALLFAGVETREMAEITQRLEAADIPYEIREDGGSIYVARSEVFNARMMLSADGLPS | -0.109
HMGGFNATTLQNIEELRRSLSDADQFGRHEVIETIGGSDSRAGKLLKKMLEAGIIEQVKGHGKGRYRFKRT | -0.0136
HMGGGEYTVAKGDTLWKIAAQTLGSPTRYAEIYNLNKDVIEETARGRGKRDSSNGHWLFPGTALKIPGT | 0.355
HMGGGFLVPSLVGKSLEEARSLSELRGFKLEVGDYVISSEYPAGRVTRQNPANGAKGQEGDVIKVEVSS | 0.0353
HMGGGRELGLDPETGKKISVRLGKFGPFVQLGESGEEDKPVFANLGKNQSIATLSLEEAIALLARPK | 0.246
HMGGGVSSSLAGNVFKVLLPAGSVVEQGQAVIVLEAMKMETEVNAPKSGSVSSVFVNEGDTVEVGDLLFAI | -0.17
HMGGKWKAIIIYHLKNGPKRFGELRRALISSTETVLSNQLKQLEQDGLVSRQVFGTKPPLKTVYSLTDFG | -3.06
HMGGKWKLRILLALENSAQDALRYGEIKNIVSGITDMMLSQSLRELTADGLIERRQYQEIPPKVEYRLS | -2.51
HMGGKWKPIILYYININSVARYSELKRFIPSINERMLTRQLRELEEDNLIERKVYPIVPPKVEYRLTEYGK | 0.0177
